Biological target: T1, hexa-histidine tagged PsMT2 (Papaver somniferum, UniProt I3PLQ6 1-356)
T1 construct: PsMT2, O-methyltransferase of the noscapine gene cluster of Papaver somniferum; gene codon-optimised for S. cerevisiae, amplified with primers PsMT2-pET-F/R and inserted into pET28a; Printed mass of the His-tagged protein is 40.09 kDa; also called His-tagged PsMT2; source: E. coli BL21(DE3), co-expressed with T7-tagged PsMT3 or Ps6OMT; complex purified (Ni-NTA agarose, then T7 tag antibody …)
T1 sequence (looked up): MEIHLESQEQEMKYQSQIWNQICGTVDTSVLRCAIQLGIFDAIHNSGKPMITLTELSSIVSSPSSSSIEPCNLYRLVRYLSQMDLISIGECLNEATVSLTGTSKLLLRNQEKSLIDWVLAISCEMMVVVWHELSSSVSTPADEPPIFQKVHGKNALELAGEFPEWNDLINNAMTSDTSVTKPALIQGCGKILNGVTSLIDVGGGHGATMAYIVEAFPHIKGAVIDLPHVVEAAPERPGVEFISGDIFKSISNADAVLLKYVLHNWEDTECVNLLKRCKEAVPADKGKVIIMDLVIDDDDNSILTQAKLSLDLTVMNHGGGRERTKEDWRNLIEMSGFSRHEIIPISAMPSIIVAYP
Assay: pull-down; tandem affinity co-purification from lysate of E. coli co-expressing both proteins: Ni-NTA agarose (His-tagged PsMT2), eluate then on T7 tag antibody agarose (T7-tagged partner); product analysed by SDS-PAGE and western blot with Anti-6X His tag and Anti-T7 tag antibodies
Settings: partners not purified

- binding result: binds
B1: Ps6OMT with T7 tag (enzyme, Papaver somniferum, UniProt Q6WUC1 1-346, looked up)
chain: METVSKIDQQNQAKIWKQIYGFAESLVLKCAVQLEIAETLHNNVKPMSLSELASKLPVAQPVNEDRLFRIMRYLVHMELFKIDATTQKYSLAPPAKYLLRGWEKSMVDSILCINDKDFLAPWHHLGDGLTGNCDAFEKALGKSIWVYMSVNPEKNQLFNAAMACDTRLVTSALANECKSIFSDGISTLVDVGGGTGTAVKAISKAFPDIKCTIYDLPHVIADSPEIPNITKISGDMFKSIPSADAIFMKCILHDWNDDECIQILKRCKEALPKGGKVIIVDVVIDMDSTHPYAKIRLTLDLDMMLNTGGKERTKEEWKTLFDAAGFASHKVTQISAVQSVIEAYPY
notes: norcoclaurine 6-O-methyltransferase from Papaver somniferum (Ps6OMT); also called norcoclaurine 6-O-methyltransferase from P. somniferum; source: E. coli, co-transformed with pCS3306 (His-tagged PsMT2) and pCS3534; complex purified by a similar procedure as PsMT2/PsMT3 (Ni-NTA agarose, then T7 tag antibody agarose); not shown: T7 tag, C-terminal, kept
